Drawing on paper PMC3521694 (PLoS Pathogens, 2012), this text covers Kd for 2 molecules.

The target in this test is full-length VipD (vacuolar protein sorting inhibitor protein D) (Legionella pneumophila, UniProt Q5ZRP9 1-621). As to the kind of experiment: ITC; […]; 25°C; 20 mM Tris-HCl pH 7.5, 100 mM NaCl; iTC200. Conditions: both partners purified.

B1: Rab22a(1-175):GDP (domain or fragment)
chain: MALRELKVCLLGDTGVGKSSIVWRFVEDSFDPNINPTIGASFMTKTVQYQNELHKFLIWDTAGQERFRALAPMYYRGSAAAIIVYDITKEETFSTLKNWVKELRQHGPPNIVVAIAGNKCDLIDVREVMERDAKDYADSIHAIFVETSAKNAININELFIEISRRIPSTDANLPS
notes: also called wild-type Rab22a(1-175)
In the case of B1, binding was put at a Kd of 123 nM.

B2: Rab5b(1-190):GDP (domain or fragment)
chain: MTSRSTARPNGQPQASKICQFKLVLLGESAVGKSSLVLRFVKGQFHEYQESTIGAAFLTQSVCLDDTTVKFEIWDTAGQERYHSLAPMYYRGAQAAIVVYDITNQETFARAKTWVKELQRQASPSIVIALAGNKADLANKRMVEYEEAQAYADDNSLLFMETSAKTAMNVNDLFLAIAKKLPKSEPQNLG
notes: also called wild-type Rab5b(1-190)
With B2, the dissociation constant Kd was found to be 3150 nM.
